Series [1] has as its system HeLa Kyoto. The experiment in a line: solubility change mitosis vs G1/S (difference of NP-40 vs SDS log2 ratios) (log2 ratio difference); higher = more soluble in mitosis.
Series [2] has as its system HeLa Kyoto. The experiment in a line: melting temperature (median over replicates), in situ; higher = more thermally stable.
Series [3] concerns HeLa Kyoto. The series can be described thus: solubility in G1/S (NP-40 vs SDS abundance) (log2 ratio); higher = more soluble. As to conditions: cell cycle stage: G1/S.
Series [4] concerns HeLa Kyoto. The series can be described thus: thermal stability score vs G1/S (z-score of summed log2 fold changes over temperatures); higher = more thermally stable than in G1/S.
[5] abbreviates: cell cycle stage: early G1 (4.5 h after nocodazole release).
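Wherever melting temperature (median over replicates), in situ is given: HeLa Kyoto cells synchronized by double thymidine or nocodazole block, proteins quantified by TMT10plex mass spectrometry, three independent biological replicates.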
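Wherever solubility change mitosis vs G1/S (difference of NP-40 vs SDS log2 ratios) is given: synchronized HeLa Kyoto cells (double thymidine block for G1/S, nocodazole release for mitosis), protein amounts in NP-40 versus SDS lysates quantified by mass spectrometry, three biological replicates.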
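Wherever solubility in G1/S (NP-40 vs SDS abundance) is given: HeLa Kyoto cells arrested at G1/S by double thymidine block, proteins quantified by TMT10plex mass spectrometry in mild NP-40 versus SDS extracts, three biological replicates.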
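Wherever thermal stability score vs G1/S (z-score of summed log2 fold changes over temperatures) is given: synchronized HeLa Kyoto cells, proteins quantified by TMT10plex mass spectrometry, three biological replicates, mitosis taken 0.5 h after nocodazole release, G1/S directly after double thymidine block.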

With “MEASVILPILKKKLAFLSGGKDRRSGLILTIPLCLEQTNMDELSVTLDYLLSIPSEKCKARGFTVIVDGRKSQWNVVKTVVVMLQNVVPAEVSLVCVVKPDEFWDKKVTHFCFWKEKDRLGFEVILVSANKLTRYIEPCQLTEDFGGSLTYDHMDWLNKRLVFEKFTKESTSLLDELALINNGSDKGNQQEKERSVDLNFLPSVDPETVLQTGHELLSELQQRRFNGSDGGVSWSPMDDELLAQPQVMKLLDSLREQYTRYQEVCRQRSKRTQLEEIQQKVMQVVNWLEGPGSEQLRAQWGIGDSIRASQALQQKHEEIESQHSEWFAVYVELNQQIAALLNAGDEEDLVELKSLQQQLSDVCYRQASQLEFRQNLLQAALEFHGVAQDLSQQLDGLLGMLCVDVAPADGASIQQTLKLLEEKLKSVDVGLQGLREKGQGLLDQISNQASWAYGKDVTIENKENVDHIQGVMEDMQLRKQRCEDMVDVRRLKMLQMVQLFKCEEDAAQAVEWLSELLDALLKTHIRLGDDAQETKVLLEKHRKFVDVAQSTYDYGRQLLQATVVLCQSLRCTSRSSGDTLPRLNRVWKQFTIASEERVHRLEMAIAFHSNAEKILQDCPEEPEAINDEEQFDEIEAVGKSLLDRLTVPVVYPDGTEQYFGSPSDMASTAENIRDRMKLVNLKRQQLRHPEMVTTES [SESTD1]”, the “solubility change mitosis (log2)” value in the series with HeLa Kyoto [1] is -0.126. In the series with HeLa Kyoto [2] (cell cycle stage: mitosis), this sequence had a melting temperature of 49.5 °C. For the same sequence, the “solubility in G1/S (log2)” value with HeLa Kyoto [3] worked out at 0.132. In addition, the thermal stability score in the series with HeLa Kyoto [4] (setting [5]) is -0.259; in the series on HeLa Kyoto [4] (cell cycle stage: mitosis) it was 0.238.
Regarding “MEATGTDEVDKLKTKFISAWNNMKYSWVLKTKTYFSRNSPVLLLGKCYHFKYEDEDKTLPAESGCTIEDHVIAGNVEEFRKDFISRIWLTYREEFPQIEGSALTTDCGWGCTLRTGQMLLAQGLILHFLGRAWTWPDALNIENSDSESWTSHTVKKFTASFEASLSGEREFKTPTISLKETIGKYSDDHEMRNEVYHRKIISWFGDSPLALFGLHQLIEYGKKSGKKAGDWYGPAVVAHILRKAVEEARHPDLQGITIYVAQDCTVYNSDVIDKQSASMTSDNADDKAVIILVPVRLGGERTNTDYLEFVKGILSLEYCVGIIGGKPKQSYYFAGFQDDSLIYMDPHYCQSFVDVSIKDFPLETFHCPSPKKMSFRKMDPSCTIGFYCRNVQDFKRASEEITKMLKFSSKEKYPLFTFVNGHSRDYDFTSTTTNEEDLFSEDEKKQLKRFSTEEFVLL [ATG4C]”, the “solubility change mitosis (log2)” value with HeLa Kyoto [1] was 0.268. For the same sequence, the melting temperature in the series with HeLa Kyoto [2] (cell cycle stage: G1/S) was found to be 50.6 °C; with HeLa Kyoto [2] (cell cycle stage: mitosis) it was 50.3 °C. For the same sequence, the “solubility in G1/S (log2)” value in the series on HeLa Kyoto [3] was -1.32. For the same sequence, the thermal stability score was -0.279 in the series on HeLa Kyoto [4] (setting [5]) and 0.138 with HeLa Kyoto [4] (cell cycle stage: mitosis).
Take “MEATGVLPFVRGVDLSGNDFKGGYFPENVKAMTSLRWLKLNRTGLCYLPEELAALQKLEHLSVSHNNLTTLHGELSSLPSLRAIVARANSLKNSGVPDDIFKLDDLSVLDLSHNQLTECPRELENAKNMLVLNLSHNSIDTIPNQLFINLTDLLYLDLSENRLESLPPQMRRLVHLQTLVLNGNPLLHAQLRQLPAMTALQTLHLRSTQRTQSNLPTSLEGLSNLADVDLSCNDLTRVPECLYTLPSLRRLNLSSNQITELSLCIDQWVHVETLNLSRNQLTSLPSAICKLSKLKKLYLNSNKLDFDGLPSGIGKLTNLEEFMAANNNLELVPESLCRCPKLRKLVLNKNHLVTLPEAIHFLTEIEVLDVRENPNLVMPPKPADRAAEWYNIDFSLQNQLRLAGASPATVAAAAAAGSGPKDPMARKMRLRRRKDSAQDDQAKQVLKGMSDVAQEKNKKQEESADARAPSGKVRRWDQGLEKPRLDYSEFFTEDVGQLPGLTIWQIENFVPVLVEEAFHGKFYEADCYIVLKTFLDDSGSLNWEIYYWIGGEATLDKKACSAIHAVNLRNYLGAECRTVREEMGDESEEFLQVFDNDISYIEGGTASGFYTVEDTHYVTRMYRVYGKKNIKLEPVPLKGTSLDPRFVFLLDRGLDIYVWRGAQATLSSTTKARLFAEKINKNERKGKAEITLLVQGQELPEFWEALGGEPSEIKKHVPEDFWPPQPKLYKVGLGLGYLELPQINYKLSVEHKQRPKVELMPRMRLLQSLLDTRCVYILDCWSDVFIWLGRKSPRLVRAAALKLGQELCGMLHRPRHATVSRSLEGTEAQVFKAKFKNWDDVLTVDYTRNAEAVLQSPGLSGKVKRDAEKKDQMKADLTALFLPRQPPMSLAEAEQLMEEWNEDLDGMEGFVLEGKKFARLPEEEFGHFYTQDCYVFLCRYWVPVEYEEEEKKEDKEEKAEGKEGEEATAEAEEKQPEEDFQCIVYFWQGREASNMGWLTFTFSLQKKFESLFPGKLEVVRMTQQQENPKFLSHFKRKFIIHRGKRKAVQGAQQPSLYQIRTNGSALCTRCIQINTDSSLLNSEFCFILKVPFESEDNQGIVYAWVGRASDPDEAKLAEDILNTMFDTSYSKQVINEGEEPENFFWVGIGAQKPYDDDAEYMKHTRLFRCSNEKGYFAVTEKCSDFCQDDLADDDIMLLDNGQEVYMWVGTQTSQVEIKLSLKACQVYIQHMRSKEHERPRRLRLVRKGNEQHAFTRCFHAWSAFCKALA [FLII]”: in the series on HeLa Kyoto [1], the “solubility change mitosis (log2)” value was -0.0947. The melting temperature in the series with HeLa Kyoto [2] (cell cycle stage: G1/S) and in the series with HeLa Kyoto [2] (cell cycle stage: mitosis) was 49.5 °C each time. Further, the “solubility in G1/S (log2)” value in the series on HeLa Kyoto [3] was -0.172. In addition, the thermal stability score in the series on HeLa Kyoto [4] (setting [5]) is -0.0623; in the series with HeLa Kyoto [4] (cell cycle stage: mitosis) it was 0.353.
For “MEAVLTEELDEEEQLLRRHRKEKKELQAKIQGMKNAVPKNDKKRRKQLTEDVAKLEKEMEQKHREELEQLKLTTKENKIDSVAVNISNLVLENQPPRISKAQKRREKKAALEKEREERIAEAEIENLTGARHMESEKLAQILAARQLEIKQIPSDGHCMYKAIEDQLKEKDCALTVVALRSQTAEYMQSHVEDFLPFLTNPNTGDMYTPEEFQKYCEDIVNTAAWGGQLELRALSHILQTPIEIIQADSPPIIVGEEYSKKPLILVYMRHAYGLGEHYNSVTRLVNIVTENCS [OTUD6B]”, the “solubility change mitosis (log2)” value in the series with HeLa Kyoto [1] is -0.0729. The values for the melting temperature with HeLa Kyoto [2] (cell cycle stage: G1/S) and in the series on HeLa Kyoto [2] (cell cycle stage: mitosis) were 49.9 °C and 50 °C, respectively. The “solubility in G1/S (log2)” value in the series on HeLa Kyoto [3] was found to be 0.512. Further, the thermal stability score in the series on HeLa Kyoto [4] (setting [5]) was 0.405; in the series with HeLa Kyoto [4] (cell cycle stage: mitosis) it was 0.425.
